The values that follow come from article PMC8257661.

The test addresses JUNV L protein VNN(1177–1179)AAA (Junin virus (JUNV)). Nature of the test: MST.

B1: Junin virus (JUNV) Z protein (natural protein)
chain: MGNCNGASKSNQPDSSRVTQPAAEFRRVAHSSLYGRYNCKCCWFADTNLITCNDHYLCLRCHQVMLRNSDLCNICWKPLPTTITVPVEPTAPPP
The term Kd denotes a measure of binding affinity in units of concentration. As to B1, the dissociation constant (Kd) worked out at 914 nM.
